From article PMC3309923

Target: Fc6 (recombinant human IgG1 Fc protein) (human)
Test: SEC; analytical SEC of the Protein A purified reaction products on TSKgel SuperSW3000; native, non-reducing; 50 mM sodium phosphate pH 7.4, 300 mM NaCl, 25 °C

Fc6 (recombinant human IgG1 Fc protein) (domain or fragment)
stoichiometry N: 2
